Consider 27 molecules from patent US20140057807A1 (UNIVERSITY OF CHICAGO, published 2014).

The labels stand for the following.
B1: SEQ ID NO 204 (designed binder)
chain: VSDVPRDLEVVAATPTSLLISWDAPAVTVRYYWIIYWEAWEYVQAQEFTVPGSKSTATISGLKPGVHYGIMVSAVSGEQPWYPISINYRT
B2: SEQ ID NO 223 (designed binder)
chain: VSDVPRDLEVVAATPTSLLISWDAPAVTVRTYTIWYVQRYAYSQEFTVPGSKSTATISGLKPGVSYSISVRAVSTDRYYPISINYRT
B3: SEQ ID NO 224 (designed binder)
chain: VSDVPRDLEVVAATPTSLLISWDAPAVTVRYYSIAYWQLYLPVQEFTVPGSKSTATISGLKPGVSYGITVEAVMSGYSIYPISINYRT
B4: SEQ ID NO 221 (designed binder)
chain: VSDVPRDLEVVAATPTSLLISWDAPAVTVRKYQIYYYYSAYVKESQEFTVPGSKSTATISGLKPGVSYNIAVYAVSKSRYQPPISINYRT
B5: SEQ ID NO 214 (designed binder)
chain: VSDVPRDLEVVAATPTSLLISWDAPAVTVRSYHIYDYYNVHSYYGQEFTVPGSKSTATISGLKPGVSYAIYVGAVNEKQLGPISINYRT
B6: SEQ ID NO 205 (designed binder)
chain: VSDVPRDLEVVAATPTSLLISWDAPAVTVRIYSIYYYSYVMRGYYFQEFTVLGSKSTATISGLKPGVNYDINVQAVYHRGWRYPISINYRT
B7: SEQ ID NO 206 (designed binder)
chain: VSDVPRDLEVVAATPTSLLISWDAPAVAVRAYSIDYYHDNGDGTQEFTVPGSKSTATISGLKPGVTYGILVYAVVSNMGIPISINYRT
B8: SEQ ID NO 225 (designed binder)
chain: VSDVPRDLEVVAAAPTSLLISWDAPAVTVRKYYIWYGYSYFVAYSSYQEFTVPGSKSTATISGLKPGVRYYIGVLAVKYPGDYYPISINYRT
B9: SEQ ID NO 207 (designed binder)
chain: VSDVPRDLEVVAATPTSLLISWDAPAVTVRSYYIGYSAYDEYGGRQEFTVPGSKSTATISGLKPGVSYSINVFAVYTMTGRAPISINYRT
B10: SEQ ID NO 226 (designed binder)
chain: VSDVPRDLEVVAATPTSLLISWDAPAVTVRYHSIGYNYYGMYQEFTVPGSKSTATISGLKPGVYYYIYVRAVTGREAAPISINYRT
B11: SEQ ID NO 228 (designed binder)
chain: VSDVPRDLEVVAATPTSLLISWDAPAVTVRSYKISYYGYHWVYQEFTVPGSKSTATISGLKPGVSYLISVSAVDYYGVLPISINYRT
B12: SEQ ID NO 212 (designed binder)
chain: VSDVPRDLEVVAATPTSLLISWDAPAVTVRTYSISYSFGLDYEYDQEFTVPGSKSTATISGLKPGVQYYIVVDAVAGWQYYPISINYRT
B13: SEQ ID NO 208 (designed binder)
chain: VSDVPRDLEVVAATPTSLLISWDAPAVTVRKYSIYYFSSYSGIAQEFTVPGSKSTATISGLKPGVYYGIYVEAVYHHYSPPISINYRT
B14: SEQ ID NO 201 (designed binder)
chain: VSDVPRDLEVVAATPTSLLISWDAPAVTVRGYYISYYYHSTRDSQEFTVPGSKSTATISGLKPGVSYYVGVGAVWKKDYYFPISINYRT
B15: SEQ ID NO 227 (designed binder)
chain: VSDVPRDLEVVAATPTSLLISWDAPAVTVRTYQIEYVSSYYRWTQEFTVPGSKSTATISGLKPGVVYFIYVAAVRDGPNDPISINYRT
B16: SEQ ID NO 216 (designed binder)
chain: VSDVPRDLEVVAATPTSLLISWDAPAVTVREYSIYHSWTLVYRRQEFTVPGSKSTATISGLKPGVNYYIYVGAVDNGYGPDPISINYRT
B17: SEQ ID NO 215 (designed binder)
chain: VSDVPRDLEVVAATPTSLLISWDAPAVTVRTYVISYMSYDAQGGQNQEFTVPGSKSTATISGLKPGVAYNIIVSAVGGGQQAVPISINYRT
B18: SEQ ID NO 220 (designed binder)
chain: VSDVPRDLEVVAATPTSLLISWDAPAVTVRSYSIGYFGAYRNWVQEFTVPGSKSTATISGLKPGVTYYIEVYAVYSNPVYPISINYRT
B19: SEQ ID NO 211 (designed binder)
chain: VSDVPRDLEVVAATPTSLLISWDAPAVTVRTYWIVYYRSVYSNGQEFTVPGSKSTATISGLKPGVIYSIRVIAVSYYYYGPISINYRT
B20: SEQ ID NO 209 (designed binder)
chain: VSDVPRDLEVVAATPTSLLISWDAPAVTVRNYYIQYMVNYNDTQEFTVPGSKSTATISGLKPGVYYDIKVAAVYVAEDRPISINYRT
B21: SEQ ID NO 202 (designed binder)
chain: VSDVPRDLEVVAATPTSLLISWDAPAVTVRYYYILYGDYNAYMDYAGQEFTVPGSKSTATISGLKPGVGYVEIDVYAVRTSEEQPISINYRT
B22: SEQ ID NO 213 (designed binder)
chain: VSDVPRDLEVVAATPTSLLISWDAPAVTVRGYSIKYGSTISADQEFTVPGSKSTATISGLKPGVFYVIMVWAVYYAYANYPISINYRT
B23: SEQ ID NO 203 (designed binder)
chain: VSDVPRDLEVVAATPTSLLISWDAPAVTVRAYQIRYAYYSVGRQEFTVPGSKSTATISGLRPGVKYHISVYAVNGGMVTDPISINYRT
B24: SEQ ID NO 218 (designed binder)
chain: VSDVPRDLGVVAATPTSLRISWDAPAVTVRSYDIYYWYTTGGSQEFTVPGSKSTATISGLKPGVMYNIYVTAVDADVGGPISINYRT
B25: SEQ ID NO 219 (designed binder)
chain: VSDVPRDLEVVAATPTSLLISWDAPAVTVRRYYIGYNWQSPAWNQEFTVPGSKSTATISGLKPGVYYQIYVAAVLRYGDYAPISINYRT
B26: SEQ ID NO 222 (designed binder)
chain: VSDVPRDLEVVAATPTSLLTSWDAPAVTVRNYAIYYYDDDTGRQEFTVPGSKSTATISGLKPGVDYYIGVEAVWYWVSSPISINYRT
B27: SEQ ID NO 210 (designed binder)
chain: VSDVPRDLEVVAATPTSLLISWDAPAVTVRKYYITYYRGRSGNQEFTVPGSKSTATISGLKPGVKYHILVSAVKYPFRRLPISINYRT

The assay deals with T1, human serum albumin (human, UniProt P02768 25-609).
T1 construct: also called HSA
T1 sequence (P02768 25-609 limits assumed): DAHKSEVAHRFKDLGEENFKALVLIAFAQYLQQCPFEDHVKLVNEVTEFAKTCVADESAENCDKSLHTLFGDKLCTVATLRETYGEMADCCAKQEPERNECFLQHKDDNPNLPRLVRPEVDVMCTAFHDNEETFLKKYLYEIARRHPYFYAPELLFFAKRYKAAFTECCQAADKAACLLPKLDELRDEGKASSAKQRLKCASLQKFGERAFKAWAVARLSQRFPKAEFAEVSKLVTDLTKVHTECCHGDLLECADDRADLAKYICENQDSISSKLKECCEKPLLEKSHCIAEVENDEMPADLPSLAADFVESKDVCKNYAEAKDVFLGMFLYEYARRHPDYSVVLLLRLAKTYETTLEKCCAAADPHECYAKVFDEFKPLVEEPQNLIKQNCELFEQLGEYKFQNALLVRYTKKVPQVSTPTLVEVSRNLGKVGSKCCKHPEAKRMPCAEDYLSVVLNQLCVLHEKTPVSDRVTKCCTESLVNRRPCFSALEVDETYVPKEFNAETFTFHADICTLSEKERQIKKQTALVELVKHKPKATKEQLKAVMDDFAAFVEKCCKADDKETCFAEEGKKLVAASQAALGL
Briefly: cradle library selection hit.
Consider B1, for which the binding result is reported as “binds”.
As to B2, the binding result was “binds”.
Regarding B3, the binding result is listed as “binds”.
As for B4, the binding result was “binds”.
Turning to B5, the binding result was “binds”.
For B6, the binding result is “binds”.
To B7 belongs “binds”; to B8, “binds”.
Regarding B9, the binding result is reported as “binds”.
With B10, the binding result is given as “binds”.
For the molecule B11, the binding result is recorded as “binds”.
In the case of B12, the binding result is “binds”.
For B13, the binding result is “binds”.
On to B14, for which the binding result is listed as “binds”.
For B15, the binding result is “binds”.
To B16 belongs “binds”; to B17, “binds”; to B18, “binds”.
As for B19, the binding result was “binds”.
To B20 belongs “binds”; to B21, “binds”.
Consider B22, for which the binding result is reported as “binds”.
B23: the binding result is “binds”.
As to B24, the binding result is listed as “binds”.
With B25, the binding result is “binds”.
As to B26, the binding result is listed as “binds”.
On to B27, for which the binding result was “binds”.
